The target in the experiment is N-His6-fortilin (human) (UniProt P13693). Kind of experiment: SPR; Biacore 3000, 25 °C, HBS-EPS (0.01 M HEPES, 0.5 M NaCl, 3 mM EDTA, 0.005% Tween 20, pH 7.4), 20 μL/min; forms of rh-fortilin amine-coupled to a CM5 chip; rh-TGF-β1 injected (0 to 200 nM; 100 nM for scouting). For orientation: In SPR one partner is held on a chip, and binding of the other changes the refractive index at the surface.

By Kd is commonly meant the free concentration of one partner at which half of the binding sites on the other are occupied at equilibrium, for simple one-to-one binding. A higher Kd goes with weaker binding.

Chain of N-His6-fortilin (human) (P13693 whole entry): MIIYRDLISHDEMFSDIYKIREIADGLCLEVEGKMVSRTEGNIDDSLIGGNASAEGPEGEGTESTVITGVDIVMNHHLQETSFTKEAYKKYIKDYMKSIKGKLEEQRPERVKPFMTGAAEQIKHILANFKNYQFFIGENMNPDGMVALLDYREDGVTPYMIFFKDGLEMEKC

For the substance “recombinant human TGF-β1 produced in-house (ligand)”, the Kd was determined as 0.21 µM.
